Source: PMC10350917 (Journal of Medicinal Chemistry, 2023)
“And” between values parts separate entries of the source, which are not always exact repeats. Equal values may be shown once.

Experiments:
[1] = test system: Cn1c(N)c(NC(=O)NCCN)c[n+]1CC1=C(C(=O)O)N2C(=O)[C@@H](NC(=O)/C(=N\OC(C)(C)C(=O)[O-])c3nsc(N)n3)[C@H]2SC1; experiment: purified protein, by the assay type; conditions: 50 mM NaH2PO4 pH 7.4, room temperature
[2] = test system: CC(C)(O/N=C(\C(=O)N[C@@H]1C(=O)N2C(C(=O)[O-])=C(C[n+]3ccccc3)CS[C@H]12)c1csc(N)n1)C(=O)O; experiment: purified protein, by the assay type; conditions: 50 mM NaH2PO4 pH 7.4, room temperature
[3] = test system: CC(=O)OCC1=C(C(=O)O)N2C(=O)[C@@H](NC(=O)Cc3cccs3)[C@H]2SC1; experiment: purified protein, by the assay type; conditions: 50 mM NaH2PO4 pH 7.4, room temperature
[4] = test system: CC(C)(O/N=C(\C(=O)N[C@@H]1C(=O)N2C(C(=O)[O-])=C(C[N+]3(CCNC(=O)c4ccc(O)c(O)c4Cl)CCCC3)CS[C@H]12)c1csc(N)n1)C(=O)O; experiment: purified protein, by the assay type; conditions: 50 mM NaH2PO4 pH 7.4, room temperature
[5] = test system: CO/N=C(\C(=O)N[C@@H]1C(=O)N2C(C(=O)[O-])=C(C[N+]3(C)CCCC3)CS[C@H]12)c1csc(N)n1; experiment: purified protein, by the assay type; conditions: 50 mM NaH2PO4 pH 7.4, room temperature
[6] = test system: O=C(Cc1cccs1)N[C@@H]1C(=O)N2C(C(=O)O)=C(/C=C/c3ccc([N+](=O)[O-])cc3[N+](=O)[O-])CS[C@H]12; experiment: purified protein, by the assay type; conditions: 50 mM NaH2PO4 pH 7.4, room temperature
[7] = test system: ADC-7 in pBCSK(−) E. coli DH10B; experiment: Broth microdilution AST, ADC-7; format: cell-based; conditions: Escherichia coli, E. coli DH10B ADC-7, MB076 fixed at 10 mg/L in combinations, FDC in iron-depleted broth
Experimental: (§1) Susceptibility testing to standard antibiotics was performed by broth microdilution or agar dilution using an Oxoid replicator according to 2021 Clinical and Laboratory Standards Institute (CLSI) guidelines. MICs for CAZ, CTX, FEP, and TOL were determined using cation-adjusted Mueller Hinton MH broth, and MICs for FDC were done in iron-depleted cation-adjusted MH broth according to CLSI methods. MB076, S02030, and VAB were used at a fixed concentration of 10 mg/L. All MICs were interpreted according to the 2021 CLSI guidelines.[43]
(§2) blaADC-7 pBCSK- was cloned and expressed in E. coli DH10B cells as previously described.[44] All other blaADC variants were synthesized by GenScript according to the blaADC-7 pBCSK- strategy, cloning into the XbaI/BamHI sites of the pBCSK- vector.

[8] = test system: ADC-219 in pBCSK(−) E. coli DH10B; experiment: Broth microdilution AST, ADC-219; format: cell-based; conditions: Escherichia coli, E. coli DH10B ADC-219, MB076 fixed at 10 mg/L in combinations, FDC in iron-depleted broth
Experimental: as §1, §2

ADC-7 = ADC-7 (Acinetobacter baumannii, UniProt Q6DRA1)
Experimental: (§3) Steady-state kinetic parameters were determined by combining pure enzyme with antibiotic substrates in 50 mM NaH2PO4, pH 7.4 at room temperature. Changes in absorbance were measured on a Cary 60 UV–Vis spectrophotometer (Agilent Technologies) and converted to velocity using the change in extinction coefficient specific to nitrocefin (ε482 = 17,400 M^–1·cm^–1), cephalothin (ε262 = 7660 M^–1·cm^–1), ceftazidime (ε260 = 8660 M^–1·cm^–1), cefotaxime (ε260 = 7500 M^–1·cm^–1), cefepime (ε260 = 750 M^–1·cm^–1), cefiderocol (ε259 = 9430 M^–1·cm^–1), and ceftolozane (ε254 = 6810 M^–1·cm^–1). Initial velocities were fit to the Michaelis–Menten equation yielding kcat and KM values. For ADC/substrate combinations in which the KM was too large to accurately determine both kcat and KM values, the initial velocities at kcat/KM values were calculated from linear fits of vo in low [S] ranges (<0.08 × KM).

ADC-30 = ADC-30 (Acinetobacter baumannii, UniProt A7XM81)
Experimental: as §3

ADC-33 = ADC-33 (Acinetobacter baumannii, UniProt A7Y407)
Experimental: as §3

ADC-162 = ADC-162 (Acinetobacter baumannii, UniProt A0A2H4PPJ8); conditions: substrate
Experimental: as §3

[9] = test system: ADC-30 in pBCSK(−) E. coli DH10B; experiment: Broth microdilution AST, ADC-30; format: cell-based; conditions: Escherichia coli, E. coli DH10B ADC-30, MB076 fixed at 10 mg/L in combinations, FDC in iron-depleted broth
Experimental: as §1, §2

ADC-212 = ADC-212 (Acinetobacter baumannii, UniProt A8QIF8, A224D/INS243L/P244A); format: biochemical; conditions: substrate
Experimental: as §3

ADC-219 = ADC-219 (Acinetobacter baumannii, UniProt A7Y407, G248D); format: biochemical; conditions: substrate
Experimental: as §3

[10] = test system: ADC-33 in pBCSK(−) E. coli DH10B; experiment: Broth microdilution AST, ADC-33; format: cell-based; conditions: Escherichia coli, E. coli DH10B ADC-33, MB076 fixed at 10 mg/L in combinations, FDC in iron-depleted broth
Experimental: as §1, §2

[11] = test system: ADC-212 in pBCSK(−) E. coli DH10B; experiment: Broth microdilution AST, ADC-212; format: cell-based; conditions: Escherichia coli, E. coli DH10B ADC-212, MB076 fixed at 10 mg/L in combinations, FDC in iron-depleted broth
Experimental: as §1, §2

## ADC-33 (Acinetobacter baumannii)
[1]; other: ADC-33, substrate
  Km: 219.3 ± 21.6 µM
  kcat: 4.23 ± 0.18 s⁻¹
  kcat/Km: 19300 ± 2700 M⁻¹ s⁻¹
[2]; other: ADC-33, substrate
  Km: 59.3 ± 7.80 µM
  kcat: 3.71 ± 0.088 s⁻¹
  kcat/Km: 62600 ± 9700 M⁻¹ s⁻¹
[3]; other: ADC-33, substrate
  Km: 95.3 ± 3.5 µM
  kcat: 347 ± 4.5 s⁻¹
  kcat/Km: 3.64e+06 ± 180000 M⁻¹ s⁻¹
[4]; other: ADC-33, substrate
  Km: 107 µM and 107.2 ± 13.8 µM
  kcat: 0.6 ± 0.0315 s⁻¹
  kcat/Km: 5600 ± 1000 M⁻¹ s⁻¹
[5]; other: ADC-33, substrate
  kcat/Km: 16900 M⁻¹ s⁻¹
[6]; other: ADC-33, substrate
  Km: 45.8 ± 6.07 µM
  kcat: 707 ± 28.2 s⁻¹
  kcat/Km: 1.54e+07 ± 2.66e+06 M⁻¹ s⁻¹

## ADC-7 (Acinetobacter baumannii)
[1]; other: ADC-7, substrate
  kcat/Km: < 1000 M⁻¹ s⁻¹
[2]; other: ADC-7, substrate
  kcat/Km: 2000 M⁻¹ s⁻¹
[3]; other: ADC-7, substrate
  Km: 204.2 ± 11.2 µM
  kcat: 659 ± 16.6 s⁻¹
  kcat/Km: 3.22e+06 ± 260000 M⁻¹ s⁻¹
[4]; other: ADC-7, substrate
  kcat/Km: < 1000 M⁻¹ s⁻¹
[5]; other: ADC-7, substrate
  kcat/Km: 6400 M⁻¹ s⁻¹
[6]; other: ADC-7, substrate
  Km: 57.5 ± 4.6 µM
  kcat: 720 ± 18.6 s⁻¹
  kcat/Km: 1.25e+07 ± 1.33e+06 M⁻¹ s⁻¹

## ADC-162 (Acinetobacter baumannii)
[1]; other: ADC-162, substrate
  kcat/Km: < 1000 M⁻¹ s⁻¹
[2]; other: ADC-162, substrate
  kcat/Km: 3400 M⁻¹ s⁻¹
[3]; other: ADC-162, substrate
  Km: 382.0 ± 26.4 µM
  kcat: 656 ± 22.8 s⁻¹
  kcat/Km: 1.72e+06 ± 180000 M⁻¹ s⁻¹
[4]; other: ADC-162, substrate
  kcat/Km: < 1000 M⁻¹ s⁻¹
[5]; other: ADC-162, substrate
  kcat/Km: 2800 M⁻¹ s⁻¹
[6]; other: ADC-162, substrate
  Km: 88.1 ± 8.06 µM
  kcat: 591 ± 20 s⁻¹
  kcat/Km: 6.71e+06 ± 840000 M⁻¹ s⁻¹

## CO/N=C(\C(=O)N[C@@H]1C(=O)N2C(C(=O)O)=C(COC(C)=O)CS[C@H]12)c1csc(N)n1 [cefotaxime]
[7]
  MIC: 64 µg/mL
[8]
  MIC: 16 µg/mL
ADC-7
  kcat: 0.048 s^–1
ADC-7; ADC-7, substrate, 50 mM NaH2PO4 pH 7.4, room temperature
  Km: 1.23 ± 0.17 µM
ADC-30
  kcat: 0.12 s^–1
ADC-30; ADC-30, substrate, 50 mM NaH2PO4 pH 7.4, room temperature
  Km: 4.35 ± 1.81 µM
ADC-33
  kcat: 0.46 s^–1
ADC-33; ADC-33, substrate, 50 mM NaH2PO4 pH 7.4, room temperature
  Km: 7.11 ± 1.05 µM
ADC-162
  kcat: 25.4 s^–1
ADC-162; 50 mM NaH2PO4 pH 7.4, room temperature
  Km: 115 µM
[9]
  MIC: 64 µg/mL
ADC-212
  kcat: 12.0 s^–1
ADC-219
  kcat: 44.2 s^–1
[10]
  MIC: 128 µg/mL
[11]
  MIC: 128 µg/mL
